Reference: paper PMC6385258

What was measured:
[1] = target: EGF receptor (EGFR) (human (endogenous in MDA-MB-231, MCF-7, MDA-MB-468)) (UniProt P00533); experiment: single-molecule counting of quantum dots by calibrated 3D deconvolution microscopy (QDC-3DM); unpatterned MDA-MB-468 cells (high EGFR expression); 1 nM QD-EGF for 5 min on ice; washed and fixed
[2] = target: EGF receptor (EGFR) (human (endogenous in MDA-MB-231, MCF-7, MDA-MB-468)) (UniProt P00533); experiment: single-molecule counting of quantum dots by calibrated 3D deconvolution microscopy (QDC-3DM); unpatterned MDA-MB-231 cells; QD-EGF at 0.1, 1, 10 or 100 nM for 5 min on ice in serum-free DMEM with 0.8% BSA; washed and fixed
[3] = target: EGF receptor (EGFR) (human (endogenous in MDA-MB-231, MCF-7, MDA-MB-468)) (UniProt P00533); experiment: single-molecule counting of quantum dots by calibrated 3D deconvolution microscopy (QDC-3DM); MDA-MB-231 cells on fibronectin micropatterns; 1 nM QD744-EGF pulse for 5 min, washed, kept in serum-free medium; counted 10 and 30 min after the start of the pulse; also with gefitinib 0-5.1 µM
[4] = target: EGF receptor (EGFR) (human (endogenous in MDA-MB-231, MCF-7, MDA-MB-468)) (UniProt P00533); experiment: flow cytometry on cells; MDA-MB-231 cells in suspension; QD-EGF 0.06-120 nM (EGF:QD = 0.33) or dye-EGF 0.02-40 nM; 4 °C, 4 h with rocking; PBS with 0.5% BSA; nonspecific binding measured with 2 µM unlabeled EGF and subtracted; one-site fit

Substance | mean EGF bound per cell (1 nM QD-EGF) [1] [EGF per cell] | QD-EGF counts per cell (0.1, 1 and 10 nM QD-EGF) [2] [per cell] | mean EGF bound per cell (1 nM QD-EGF) [2] [EGF per cell] | EGF per cell (1 nM QD-EGF) [3] [EGF per cell] | QD-EGF per cell 30 min after the start of a 5 min pulse [3] [per cell] | Kd [4] [nM]
QD-EGF conjugate: epidermal growth factor with a single N-terminal biotin bound to a streptavidin-conjugated quantum dot (ligand) | 922 | 0 to 4000 | 80 | 1270 | 800 | 
EGF conjugated to a single tetramethylrhodamine dye (ligand) |  |  |  |  |  | 3.2
